Reference: article PMC8211825, “Molecular mechanism of calcium induced trimerization of C1q-like domain of otolin-1 from human and zebrafish” (Scientific Reports, 2021)
Where a chain is given by its changes, count along the chain named. Names and notes keep the numbering of the source.

B1: hOtolC1q E417A (domain or fragment, human, UniProt A6NHN0 338-473, looked up)
chain: ARVPRSAFSAGLSKPFPPPNIPIKFEKILYNDQGNYSPVTGKFNCSIPGTYVFSYHITVRGRPARISLVAQNKKQFKSRATLYGQEIDQASLLVILKLSAGDQVWLEVSKDWNGVYVSAEDDSIFTGFLLYPEETS
notes: gC1q (C1q-like) domain of human otolin-1, UniProt A6NHN0, with E417A
B2: hOtolC1q E417A D425A (domain or fragment, human, UniProt A6NHN0 338-473, looked up)
chain: B1 chain with D88A
notes: gC1q (C1q-like) domain of human otolin-1, UniProt A6NHN0, with E417A and D425A; also called double mutant
B3: hOtolC1q D425A (domain or fragment, human, UniProt A6NHN0 338-473, looked up)
chain: B1 chain with A80E, D88A
notes: gC1q (C1q-like) domain of human otolin-1, UniProt A6NHN0, with D425A
B4: dOtolC1q D432A (domain or fragment, zebrafish (Danio rerio), UniProt A5PN28 351-488, looked up)
chain: AVQKRSAFSVGLFPSRSFPPPGLPIRFDKIIYNEEAHWDPNASKFNCTHGGVYVFSYYITVRNRPLRAALVVNGIRKLRTRASLYGQDIDQASNMAVLRLSSGDQVWLETLRDWNGVYSSSEDDSTFSGFLLYADATK
notes: gC1q (C1q-like) domain of zebrafish otolin-1, UniProt A5PN28, with D432A; Same construct as m6 with the mutation
B5: dOtolC1q D432A D440A (domain or fragment, zebrafish (Danio rerio), UniProt A5PN28 351-488, looked up)
chain: B4 chain with D90A
notes: gC1q (C1q-like) domain of zebrafish otolin-1, UniProt A5PN28, with D432A and D440A; Same construct as m6 with the two mutations; also called double mutant
B6: dOtolC1q D440A (domain or fragment, zebrafish (Danio rerio), UniProt A5PN28 351-488, looked up)
chain: B4 chain with A82D, D90A
notes: gC1q (C1q-like) domain of zebrafish otolin-1, UniProt A5PN28, with D440A; Same construct as m6 with the mutation

Target: the molecule itself
Test: AUC; sedimentation velocity, c(s) analysis in SEDFIT; sevenfold (hOtolC1q forms) or 14-fold (dOtolC1q forms) molar excess of TbCl3; protein 0.20-0.25 mg/mL; self-association of the gC1q domain into trimers

| Protein | stoichiometry N |
| --- | --- |
| B1 | 3 |
| B2 | 3 |
| B3 | 3 |
| B4 | 3 |
| B5 | 3 |
| B6 | 3 |
